Data: patent US20220265842A1, “ANTI-CD40 ANTIBODY DRUG CONJUGATES” (priority 2017, published 2022)

What was measured:
[1] = target: human CD40 Transcript 1 (Myc-DDK-tagged) on HEK293 GRE reporter cells (human, UniProt P25942 21-277); experiment: cell-based or functional assay
[2] = target: human CD40 on LPS-stimulated human monocyte-derived dendritic cells (human, UniProt P25942 21-277); experiment: cell-based or functional assay
human CD40 on LPS-stimulated human monocyte-derived dendritic cells, sequence (P25942 21-277 limits assumed): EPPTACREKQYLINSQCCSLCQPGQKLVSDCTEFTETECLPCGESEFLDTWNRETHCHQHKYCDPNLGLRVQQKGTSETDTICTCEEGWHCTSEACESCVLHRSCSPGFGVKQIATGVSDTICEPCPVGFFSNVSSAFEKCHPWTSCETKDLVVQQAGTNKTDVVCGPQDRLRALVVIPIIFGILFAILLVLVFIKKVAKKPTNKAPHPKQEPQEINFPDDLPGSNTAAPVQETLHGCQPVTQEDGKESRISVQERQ

human CD40 Transcript 1 (Myc-DDK-tagged) on HEK293 GRE reporter cells, sequence (P25942 21-277): as the sequence (P25942 21-277 limits assumed) above

B1: Example 12-hydrolyzed (human), n=4 (antibody, human IgG1, kappa, L234A L235A, V domains shown)
VH: EVQLVESGGGLVKPGGSLRLSCAASGFTFSDYGMNWVRQAPGKGLEWIAYISSGRGNIYYADTVKGRFTISRDNAKNSLYLQMNSLRAEDTAVYYCARSWGYFDVWGQGTTVTVSS
VL: DIVMTQSPDSLAVSLGERATINCKSSQSLLNRGNQKNYLTWFQQKPGQPPKLLIYWASTRESGVPDRFSGSGSGTDFTLTISSLQAEDVAVYYCQNDYTYPLTFGQGTKLEIKR
modifications: glucocorticoid drug-linker of Precursor Example 12 (maleimide, thiosuccinimide ring hydrolyzed) on cysteine thiols of reduced disulfides; n=4 per antibody; positions not given
[1]
  hCD40 GRE (% max): 163%
  hCD40 GRE EC50: 0.19 mg/L
[2]
  IL-6 release IC50: 0.04 mg/L
  Max Inhibition (%): 99.5%

B2: Example 13-hydrolyzed (human), n=4 (antibody, human IgG1, kappa, L234A L235A, V domains shown)
VH: EVQLVESGGGLVKPGGSLRLSCAASGFTFSDYGMNWVRQAPGKGLEWIAYISSGRGNIYYADTVKGRFTISRDNAKNSLYLQMNSLRAEDTAVYYCARSWGYFDVWGQGTTVTVSS
VL: DIVMTQSPDSLAVSLGERATINCKSSQSLLNRGNQKNYLTWFQQKPGQPPKLLIYWASTRESGVPDRFSGSGSGTDFTLTISSLQAEDVAVYYCQNDYTYPLTFGQGTKLEIKR
modifications: glucocorticoid drug-linker of Precursor Example 13 (maleimide, thiosuccinimide ring hydrolyzed) on cysteine thiols of reduced disulfides; n=4 per antibody; positions not given
[1]
  hCD40 GRE (% max): 67%
  hCD40 GRE EC50: 0.29 mg/L
[2]
  IL-6 release IC50: 0.14 mg/L
  Max Inhibition (%): 83.3%

B3: Example 28-conjugated (human), n=4 (antibody, human IgG1, kappa, L234A L235A, DAR 4, V domains shown)
VH: EVQLVESGGGLVKPGGSLRLSCAASGFTFSDYGMNWVRQAPGKGLEWIAYISSGRGNIYYADTVKGRFTISRDNAKNSLYLQMNSLRAEDTAVYYCARSWGYFDVWGQGTTVTVSS
VL: DIVMTQSPDSLAVSLGERATINCKSSQSLLNRGNQKNYLTWFQQKPGQPPKLLIYWASTRESGVPDRFSGSGSGTDFTLTISSLQAEDVAVYYCQNDYTYPLTFGQGTKLEIKR
modifications: glucocorticoid drug-linker of Precursor Example 28 (bromoacetamide) on cysteine thiols of reduced interchain disulfides; n=4 per antibody; positions not given
[1]
  hCD40 GRE (% max): 77%
  hCD40 GRE EC50: 0.53 mg/L
[2]
  IL-6 release IC50: 0.05 mg/L
  Max Inhibition (%): 87.6%

B4: Example 4-conjugated (human), n=4 (antibody, human IgG1, kappa, L234A L235A, DAR 4, V domains shown)
VH: EVQLVESGGGLVKPGGSLRLSCAASGFTFSDYGMNWVRQAPGKGLEWIAYISSGRGNIYYADTVKGRFTISRDNAKNSLYLQMNSLRAEDTAVYYCARSWGYFDVWGQGTTVTVSS
VL: DIVMTQSPDSLAVSLGERATINCKSSQSLLNRGNQKNYLTWFQQKPGQPPKLLIYWASTRESGVPDRFSGSGSGTDFTLTISSLQAEDVAVYYCQNDYTYPLTFGQGTKLEIKR
modifications: glucocorticoid drug-linker of Precursor Example 4 (bromoacetamide) on cysteine thiols of reduced interchain disulfides; n=4 per antibody; positions not given
[1]
  hCD40 GRE (% max): 88%
  hCD40 GRE EC50: 6.57 mg/L

B5: Human anti-CD40 antibody Ab102 (antibody, human IgG1, kappa, L234A L235A, V domains shown)
VH: EVQLVESGGGLVKPGGSLRLSCAASGFTFSDYGMNWVRQAPGKGLEWIAYISSGRGNIYYADTVKGRFTISRDNAKNSLYLQMNSLRAEDTAVYYCARSWGYFDVWGQGTTVTVSS
VL: DIVMTQSPDSLAVSLGERATINCKSSQSLLNRGNQKNYLTWFQQKPGQPPKLLIYWASTRESGVPDRFSGSGSGTDFTLTISSLQAEDVAVYYCQNDYTYPLTFGQGTKLEIKR
[2]
  IL-6 release IC50: 0.18 mg/L
  Max Inhibition (%): 44.5%

B6: Example 28-conjugated (human), n=2 (antibody, human IgG1, kappa, L234A L235A, DAR 2, V domains shown)
VH: EVQLVESGGGLVKPGGSLRLSCAASGFTFSDYGMNWVRQAPGKGLEWIAYISSGRGNIYYADTVKGRFTISRDNAKNSLYLQMNSLRAEDTAVYYCARSWGYFDVWGQGTTVTVSS
VL: DIVMTQSPDSLAVSLGERATINCKSSQSLLNRGNQKNYLTWFQQKPGQPPKLLIYWASTRESGVPDRFSGSGSGTDFTLTISSLQAEDVAVYYCQNDYTYPLTFGQGTKLEIKR
modifications: glucocorticoid drug-linker of Precursor Example 28 (bromoacetamide) on cysteine thiols of reduced interchain disulfides; n=2 per antibody; positions not given
[1]
  hCD40 GRE (% max): 90%
  hCD40 GRE EC50: 16.5 mg/L
[2]
  IL-6 release IC50: 0.03 mg/L
  Max Inhibition (%): 81.8%
